± gives the uncertainty stated by the source.
B1: Nuclear receptor subfamily 1 group D member 2, residues 103 to 171; numbered along this chain, Q14995 (parent)
chain: CKVCGDVASGFHYGVHACEGCKGFFRRSIQQNIQYKKCLKNENCSIMRMNRNRCQQCRFKKCLSVGMSR

Variants of: B1
Assay: abundance fitness (aPCA) (normalised: wild type 0, dead -1); higher = more abundant; growth selection in yeast, the domain comes from the species named
Conditions: Homo sapiens

Variant | abundance fitness
CKVCGDVASGFHYGVHACEGCKGFFRRSIQQNIQYKKCLKNENCSIMRMNRNRCQQCRFKKCLSVGMSV [R69V] | 0.327 ± 0.07
CKVCGDVASGFHYGVHACEGCKGFFRRSIQQNIQYKKCLKNENCSIMRMNRNRCQQCRFKKCLSVGMSD [R69D] | -0.404 ± 0.26
CKVCGDVASGFHYGVHACEGCKGFFRRSIQQNIQYKKCLKNENCSIMRMNRNRCQQCRFKKCLSVGMST [R69T] | 0.451 ± 0.13
CKVCGDVASGFHYGVHACEGCKGFFRRSIQQNIQYKKCLKNENCSIMRMNRNRCQQCRFKKCLSVGMSE [R69E] | 0.008 ± 0.16
CKVCGDVASGFHYGVHACEGCKGFFRRSIQQNIQYKKCLKNENCSIMRMNRNRCQQCRFKKCLSVGMSW [R69W] | 0.288 ± 0.17
CKVCGDVASGFHYGVHACEGCKGFFRRSIQQNIQYKKCLKNENCSIMRMNRNRCQQCRFKKCLSVGMSY [R69Y] | -0.083 ± 0.2
CKVCGDVASGFHYGVHACEGCKGFFRRSIQQNIQYKKCLKNENCSIMRMNRNRCQQCRFKKCLSVGMSP [R69P] | 0.28 ± 0.12
CKVCGDVASGFHYGVHACEGCKGFFRRSIQQNIQYKKCLKNENCSIMRMNRNRCQQCRFKKCLSVGMSM [R69M] | 0.318 ± 0.12
CKVCGDVASGFHYGVHACEGCKGFFRRSIQQNIQYKKCLKNENCSIMRMNRNRCQQCRFKKCLSVGMSL [R69L] | 0.143 ± 0.087
CKVCGDVASGFHYGVHACEGCKGFFRRSIQQNIQYKKCLKNENCSIMRMNRNRCQQCRFKKCLSVGMSQ [R69Q] | 0.07 ± 0.13
CKVCGDVASGFHYGVHACEGCKGFFRRSIQQNIQYKKCLKNENCSIMRMNRNRCQQCRFKKCLSVGMSA [R69A] | 0.233 ± 0.088
CKVCGDVASGFHYGVHACEGCKGFFRRSIQQNIQYKKCLKNENCSIMRMNRNRCQQCRFKKCLSVGMSC [R69C] | -0.013 ± 0.34
CKVCGDVASGFHYGVHACEGCKGFFRRSIQQNIQYKKCLKNENCSIMRMNRNRCQQCRFKKCLSVGMSG [R69G] | 0.112 ± 0.079
CKVCGDVASGFHYGVHACEGCKGFFRRSIQQNIQYKKCLKNENCSIMRMNRNRCQQCRFKKCLSVGMSS [R69S] | 0.176 ± 0.12
CKVCGDVASGFHYGVHACEGCKGFFRRSIQQNIQYKKCLKNENCSIMRMNRNRCQQCRFKKCLSVGMSF [R69F] | 0.483 ± 0.36
CKVCGDVASGFHYGVHACEGCKGFFRRSIQQNIQYKKCLKNENCSIMRMNRNRCQQCRFKKCLSVGMIR [S68I] | -0.111 ± 0.27
CKVCGDVASGFHYGVHACEGCKGFFRRSIQQNIQYKKCLKNENCSIMRMNRNRCQQCRFKKCLSVGMFR [S68F] | -0.561 ± 0.14
CKVCGDVASGFHYGVHACEGCKGFFRRSIQQNIQYKKCLKNENCSIMRMNRNRCQQCRFKKCLSVGMTR [S68T] | -0.018 ± 0.13
CKVCGDVASGFHYGVHACEGCKGFFRRSIQQNIQYKKCLKNENCSIMRMNRNRCQQCRFKKCLSVGMLR [S68L] | -0.584 ± 0.18
CKVCGDVASGFHYGVHACEGCKGFFRRSIQQNIQYKKCLKNENCSIMRMNRNRCQQCRFKKCLSVGMKR [S68K] | -0.01 ± 0.32

Variant | abundance fitness
CKVCGDVASGFHYGVHACEGCKGFFRRSIQQNIQYKKCLKNENCSIMRMNRNRCQQCRFKKCLSVGMAR [S68A] | 0.029 ± 0.2
CKVCGDVASGFHYGVHACEGCKGFFRRSIQQNIQYKKCLKNENCSIMRMNRNRCQQCRFKKCLSVGMNR [S68N] | 0.186 ± 0.2
CKVCGDVASGFHYGVHACEGCKGFFRRSIQQNIQYKKCLKNENCSIMRMNRNRCQQCRFKKCLSVGMGR [S68G] | -0.125 ± 0.088
CKVCGDVASGFHYGVHACEGCKGFFRRSIQQNIQYKKCLKNENCSIMRMNRNRCQQCRFKKCLSVGMVR [S68V] | -0.526 ± 0.15
CKVCGDVASGFHYGVHACEGCKGFFRRSIQQNIQYKKCLKNENCSIMRMNRNRCQQCRFKKCLSVGMQR [S68Q] | 0.314 ± 0.15
CKVCGDVASGFHYGVHACEGCKGFFRRSIQQNIQYKKCLKNENCSIMRMNRNRCQQCRFKKCLSVGMDR [S68D] | -0.049 ± 0.22
CKVCGDVASGFHYGVHACEGCKGFFRRSIQQNIQYKKCLKNENCSIMRMNRNRCQQCRFKKCLSVGMPR [S68P] | -0.768 ± 0.19
CKVCGDVASGFHYGVHACEGCKGFFRRSIQQNIQYKKCLKNENCSIMRMNRNRCQQCRFKKCLSVGMMR [S68M] | -0.023 ± 0.2
CKVCGDVASGFHYGVHACEGCKGFFRRSIQQNIQYKKCLKNENCSIMRMNRNRCQQCRFKKCLSVGMCR [S68C] | -0.097 ± 0.15
CKVCGDVASGFHYGVHACEGCKGFFRRSIQQNIQYKKCLKNENCSIMRMNRNRCQQCRFKKCLSVGMRR [S68R] | -0.354 ± 0.12
CKVCGDVASGFHYGVHACEGCKGFFRRSIQQNIQYKKCLKNENCSIMRMNRNRCQQCRFKKCLSVGMHR [S68H] | -0.347 ± 0.15
CKVCGDVASGFHYGVHACEGCKGFFRRSIQQNIQYKKCLKNENCSIMRMNRNRCQQCRFKKCLSVGMER [S68E] | -0.087 ± 0.3
CKVCGDVASGFHYGVHACEGCKGFFRRSIQQNIQYKKCLKNENCSIMRMNRNRCQQCRFKKCLSVGLSR [M67L] | -0.817 ± 0.17
CKVCGDVASGFHYGVHACEGCKGFFRRSIQQNIQYKKCLKNENCSIMRMNRNRCQQCRFKKCLSVGSSR [M67S] | -0.925 ± 0.23
CKVCGDVASGFHYGVHACEGCKGFFRRSIQQNIQYKKCLKNENCSIMRMNRNRCQQCRFKKCLSVGVSR [M67V] | -0.794 ± 0.14
CKVCGDVASGFHYGVHACEGCKGFFRRSIQQNIQYKKCLKNENCSIMRMNRNRCQQCRFKKCLSVGRSR [M67R] | -0.241 ± 0.09
CKVCGDVASGFHYGVHACEGCKGFFRRSIQQNIQYKKCLKNENCSIMRMNRNRCQQCRFKKCLSVGTSR [M67T] | -0.822 ± 0.24
CKVCGDVASGFHYGVHACEGCKGFFRRSIQQNIQYKKCLKNENCSIMRMNRNRCQQCRFKKCLSVGWSR [M67W] | -0.415 ± 0.2
CKVCGDVASGFHYGVHACEGCKGFFRRSIQQNIQYKKCLKNENCSIMRMNRNRCQQCRFKKCLSVGYSR [M67Y] | -0.558 ± 0.42
